From the supplement of paper PMC10201428 come the findings set out here.

B1: library; a variant is named by its letters at N, in order (parent)
chain: AATGTTGTTGATGCAACCATAAAGTGATATTTAATAATTATTTATAATCAGCAACTTAACCACAAAACAACCATATATTGATATNTCACAAAACAACCATAANTTGATATTTTTGTGAATCGAGTATTTCAGCAAAACTACTGCAGTAAGAA

Variants of B1 are the subject of series [1]. Kind of series: relative integration efficiency (T-LR orientation) vs wild-type transposon end (log2 (normalized fold change)); transposon end mutated: left end; higher = more efficient transposition. Conditions: with VchCAST RNA-guided transposition machinery (E. coli BL21(DE3) host, lacZ target). The procedure:
(§1)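 Pooled, barcoded VchCAST (Tn6677) mini-transposon donor libraries; each variable transposon-end sequence sits in a fixed pDonor mini-transposon context (10-bp barcode and cargo not included). Left- or right-end libraries were co-transformed with pEffector (TniQ-Cascade, TnsABC, lacZ crRNA, T7, 0.1 mM IPTG) into E. coli BL21(DE3) and grown 18 h at 37 C. T-LR and T-RL junction amplicons were sequenced; output/input barcode fold change was normalised to the mean of four wild-type barcodes and log2-transformed. Two biological replicates; zero-count/undetected variants carry floor values (-10 / -15), censored here. Barcode uncoupling by PCR recombination adds noise.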

In series [2] the parent is B1. Kind of series: relative integration efficiency (T-RL orientation) vs wild-type transposon end (log2 (normalized fold change)); transposon end mutated: left end; higher = more efficient transposition. To be noted: with VchCAST RNA-guided transposition machinery (E. coli BL21(DE3) host, lacZ target). The procedure: as §1

± gives the standard deviation of the averaged measurements.

As for CA A23G G24T A33T A96C T110A T113A, the “relative integration efficiency (log2)” value in series [1] was -0.448 ± 0.74; in series [2], -0.516 ± 0.28.

For the variant TA A16C G24T T30A T76A T78G C87A A96C T112G T113C, the “relative integration efficiency (log2)” value in series [1] is -0.557 ± 0.27; in series [2], -0.232 ± 0.21.

As to TA A22T G24T T31C A33C T76A T78G C87A T104A T110A T113A, the “relative integration efficiency (log2)” value in series [1] is -0.444 ± 0.45; in series [2], -0.395 ± 0.24.

For CC A21T A22T A23T G24C A75T T76A A77T T78A A101T A102T T104A, the “relative integration efficiency (log2)” value is -2.73 ± 1.6 in series [1] and -2.03 ± 0.58 in series [2].

As for CA A22T G24T T31C A33C T104A T110A T113A, the results for the “relative integration efficiency (log2)” value in series [1] and in series [2] were -0.859 ± 0.31 and -0.686 ± 0.34, respectively.

Consider TA T76A T78G C87A A102T T111C T113C, for which the “relative integration efficiency (log2)” value in series [1] is -0.0555 ± 0.34; in series [2], -0.0993 ± 0.033.

TA A16C G24T T32G A33C T76A T78G C87A A96C T110A T113A: the “relative integration efficiency (log2)” value in series [1] is -0.283 ± 0.56; in series [2], -0.233 ± 0.26.

Regarding TA A16C G24T T32G A33C T76A T78A T84A C87A T104G T113A, the entries for the “relative integration efficiency (log2)” value in series [1] and in series [2] were -0.166 ± 0.52 and -0.296 ± 0.42, respectively.

As to CG A16C, the “relative integration efficiency (log2)” value in series [1] is -0.374 ± 0.29; in series [2], -0.26 ± 0.13.

As for CG A16G, the “relative integration efficiency (log2)” value in series [1] is -0.395 ± 0.6; in series [2], -0.205 ± 0.27.

For the variant TG A16C G24T T32G A33C T76A T78G C87A, the “relative integration efficiency (log2)” value was found to be 0.456 ± 0.7 in series [1] and 0.525 ± 0.38 in series [2].

As for TA T76A T78G C87A T104G T113A, the “relative integration efficiency (log2)” value was -0.127 ± 0.0086 in series [1] and -0.3 ± 0.22 in series [2].

Regarding TA A22T G24T T31C A33C T76A A77G C87T T104A T110A T113A, the “relative integration efficiency (log2)” value in series [1] was 0.0775 ± 0.37; in series [2] it was -0.819 ± 0.52.

On to TA A16C G24T T32G A33C T76A A77G C87T T104A T110A T113A, for which the “relative integration efficiency (log2)” value was -0.782 ± 0.82 in series [1] and -1.38 ± 0.49 in series [2].

Take CC A23T G24C A77T T78A T104A: the “relative integration efficiency (log2)” value in series [1] was -0.642 ± 0.69; in series [2], -0.611 ± 0.28.

In the case of CG A16C C17A, the “relative integration efficiency (log2)” value in series [1] is -0.804 ± 0.72; in series [2], -0.728 ± 0.41.

Regarding CA A23G G24T A33T A96C T112G T113C, the “relative integration efficiency (log2)” value in series [1] was -0.242 ± 0.57; in series [2], -0.198 ± 0.26.

With TA G24A T30A A70C T76A T84A C87A A96C T110A T113A, the “relative integration efficiency (log2)” value came to 0.37 ± 0.55 in series [1] and 0.271 ± 0.25 in series [2].

For the variant CG A16C A70C A96C, the “relative integration efficiency (log2)” value in series [1] was -0.695 ± 0.11; in series [2], -0.475 ± 0.19.

Consider TA G24A T30A A70C T76A T84A C87A T104A T110A T113A, for which the “relative integration efficiency (log2)” value is -0.0484 ± 0.45 in series [1] and -0.389 ± 0.28 in series [2].

As for TA A23G G24T A33T A70C T76A T84A C87A T104A T110A T113A, the “relative integration efficiency (log2)” value is -0.119 ± 0.32 in series [1] and -0.0493 ± 0.28 in series [2].

On to TA T76A A77G C87T T104A T110A T113A, for which the “relative integration efficiency (log2)” value is 0.28 ± 0.36 in series [1] and -0.703 ± 0.35 in series [2].

Consider TA A22T G24T T31C A33C T76A A77G C87T A96C T110A T113A, for which the entries for the “relative integration efficiency (log2)” value in series [1] and in series [2] were 0.345 ± 0.28 and -0.753 ± 0.58, respectively.

In the case of TA T76A T78G C87A A96C T112G T113C, the “relative integration efficiency (log2)” value in series [1] stood at 0.518 ± 0.51; in series [2], 0.206 ± 0.018.

Regarding TA T76A T78G C87A T104A T110A T113A, the “relative integration efficiency (log2)” value is 0.215 ± 0.49 in series [1] and -0.291 ± 0.22 in series [2].

Take TA G24A T30A A70C T76A T86G T104G T113A: the entries for the “relative integration efficiency (log2)” value in series [1] and in series [2] were -0.0684 ± 0.51 and -0.533 ± 0.11, respectively.

Turning to CA G24A T30A A102T T111C T113C, the results for the “relative integration efficiency (log2)” value in series [1] and in series [2] were 0.116 ± 0.42 and -0.31 ± 0.36, respectively.

For the variant CC T100A A101T A102T, the figures for the “relative integration efficiency (log2)” value in series [1] and in series [2] were -0.124 ± 0.68 and -0.77 ± 0.44, respectively.

As to TA A16C G24T T32G A33C T76A T78G C87A T104A T110A T113A, the entries for the “relative integration efficiency (log2)” value in series [1] and in series [2] were -0.325 ± 0.88 and -0.13 ± 0.49, respectively.

Consider CA A16C G24T T30A T104A T110A T113A, for which the “relative integration efficiency (log2)” value in series [1] is -0.532 ± 0.028; in series [2], -0.543 ± 0.56.

TA A23G G24T A33T A70C T76A T84A C87A A96C T110A T113A: the results for the “relative integration efficiency (log2)” value in series [1] and in series [2] were 0.218 ± 0.46 and 0.00966 ± 0.38, respectively.

For TA A22T G24T T31C A33C T76A T78A T84A C87A A96C T110A T113A, the “relative integration efficiency (log2)” value is -0.768 ± 1.2 in series [1] and -0.365 ± 0.32 in series [2].

For TG A16C G24T T30A A70C T76A T84A C87A, the “relative integration efficiency (log2)” value in series [1] was -0.916 ± 0.88; in series [2], -0.362 ± 0.11.

As for TA A70C T76A T84A C87A T104A T110A T113A, the entries for the “relative integration efficiency (log2)” value in series [1] and in series [2] were 0.319 ± 0.13 and -0.146 ± 0.28, respectively.

Take AG: the “relative integration efficiency (log2)” value worked out at 0.27 ± 0.094 in series [1] and 0.00541 ± 0.045 in series [2].

For TA G24A T30A A70C T76A T86G A102T T111C T113C, the figures for the “relative integration efficiency (log2)” value in series [1] and in series [2] were -0.456 ± 0.08 and -0.229 ± 0.18, respectively.

For the variant CG A1C A2C, the “relative integration efficiency (log2)” value in series [1] was -0.0923 ± 0.12; in series [2], -0.242 ± 0.0032.

For CA A16C G24T T32G A33C T104A T110A T113A, the “relative integration efficiency (log2)” value in series [1] was -0.927 ± 0.11; in series [2], -0.976 ± 0.39.

With TA A16C G24T T32G A33C A70C T76A T86G T104G T113A, the “relative integration efficiency (log2)” value in series [1] is -0.573 ± 0.99; in series [2] it was -0.869 ± 0.48.

TA A22T G24T T31C A33C T76A T78A T84A C87A T104G T113A: the “relative integration efficiency (log2)” value was -0.19 ± 0.56 in series [1] and -0.579 ± 0.53 in series [2].

For TA A70C T76A T86G T104G T113A, the entries for the “relative integration efficiency (log2)” value in series [1] and in series [2] were 0.359 ± 0.88 and -0.145 ± 0.22, respectively.

In the case of CG A1C A2C T3G G4T, the results for the “relative integration efficiency (log2)” value in series [1] and in series [2] were -0.0427 ± 0.68 and -0.346 ± 0.11, respectively.

In the case of CA G24A T30A T104A T110A T113A, the “relative integration efficiency (log2)” value in series [1] was -0.0948 ± 0.19; in series [2] it was -0.387 ± 0.2.

CA G24A T30A T104G T113A: the “relative integration efficiency (log2)” value in series [1] is -0.317 ± 0.27; in series [2], -0.387 ± 0.13.

In the case of CA A23G G24T A33T T104G T113A, the “relative integration efficiency (log2)” value in series [1] was 0.0933 ± 0.62; in series [2], -0.0946 ± 0.2.

For the variant CG A15T A16T, the “relative integration efficiency (log2)” value in series [1] is -0.556 ± 0.6; in series [2] it was -0.219 ± 0.36.

Take TA G24A T30A T76A A77G C87T A102T T111C T113C: the “relative integration efficiency (log2)” value in series [1] was -0.112 ± 0.15; in series [2], -0.456 ± 0.55.

In the case of TA A16C G24T T30A T76A T78G C87A T104A T110A T113A, the “relative integration efficiency (log2)” value in series [1] is -0.00394 ± 0.69; in series [2], -0.0421 ± 0.16.

For TA G24A T30A A70C T76A T84A C87A A102T T111C T113C, the figures for the “relative integration efficiency (log2)” value in series [1] and in series [2] were -0.133 ± 0.92 and -0.0645 ± 0.27, respectively.

On to TA A16C G24T T32G A33C A70C T76A T86G A96C T112G T113C, for which the “relative integration efficiency (log2)” value in series [1] was -1.11 ± 0.096; in series [2] it was -0.726 ± 0.16.

For TA A23G G24T A33T A70C T76A T84A C87A T104G T113A, the results for the “relative integration efficiency (log2)” value in series [1] and in series [2] were -0.16 ± 0.29 and -0.158 ± 0.26, respectively.

With CC A102T, the “relative integration efficiency (log2)” value is 0.202 ± 0.2 in series [1] and -0.155 ± 0.12 in series [2].

On to TA T76A T78A T84A C87A A102T T111C T113C, for which the “relative integration efficiency (log2)” value in series [1] is -0.0132 ± 0.72; in series [2], 0.244 ± 0.16.

Consider TA A23G G24T A33T T76A T78G C87A T104A T110A T113A, for which the “relative integration efficiency (log2)” value is 0.283 ± 0.28 in series [1] and 0.0976 ± 0.22 in series [2].

On to TA A16C G24T T32G A33C T76A T78G C87A A102T T111C T113C, for which the “relative integration efficiency (log2)” value in series [1] is -0.986 ± 0.79; in series [2], -0.362 ± 0.18.

Turning to CG A11G, the “relative integration efficiency (log2)” value in series [1] is -0.67 ± 0.84; in series [2], 0.0387 ± 0.29.

Regarding CG A11T, the “relative integration efficiency (log2)” value in series [1] is -0.735 ± 0.14; in series [2], -0.00672 ± 0.034.

Regarding CG A11C, the figures for the “relative integration efficiency (log2)” value in series [1] and in series [2] were 0.113 ± 0.091 and -0.401 ± 0.34, respectively.
